Data published in a protein production outcome set (Wang et al. 2014).

experiment: label from the status in PepcDB records

| Sequence | protein production |
| --- | --- |
| MTDFSRTFSGTPSAVLPTANRFFRPPLPSAHVARPRLCRRLRDGLDGRLLLIAAPAGFGKSSLAIEFCESLDPRWQSLWLGLSSRESDPGRFLERLLDGLRQYHPTLGEEALGLLKMRQRHQPFAFETWLDDLLDELAPCLDPQRPLLLVLDDYHLAQGAVLDRCLQFLLNHLPEGLVLLVTSRQRPDWHLARLRLSRQLLELSEQDLRLTAEESGALMAASGLELDEDALDALLERSEGWVAGLRLWLLARGDPEEQVSPGVHGADELIRDYLLEEVIERQPPEVQAFLAQTARFERFCAELCDTVREAGDSAAILDHLQQHQVFLVPLDENGQWFRYHHLFSDLLLARPLPDFGPSAGSLHLRACGWFSRHGLLDQAVEQALRAGQPDVAASLVQNLSEEQLLAEQNIATLLRWKMDLPDSLLASTPRLILLYGWALALACQLDAAEELAGQLARFLPAPDESAQRDLLAQWQALSGVIARGRGDIDKAEAHCREALQDLAGERYGTRLQCLSTLSNLAVTRGDFWQARNYNRDALEFAQRYGNPLFEALVHYDRARVLQARGEVARAEEEVRQGLERLQHLPAQRRYAVRGRLLLYRGYLRSLALQPDEARKWIKQGIEETRSCRDVSLVIGYCVLASLEGRLGNYAAAFARLGDVERLMHAWDIPPIYYLAAITLIKCELWLAQGQTELAGVWLQRLGGTYGGQAATPPECSPLLPLHVELLQAGLERREGRPEEAARRLDRLARSTRENGALLPARLALGQLAALHLEQGREREALATLQQAMEGAVGGALLPLHELLVQQPEWLREQLQRFPACPGAQRMRALLPEPPAEPAGSAGEVLSGRELAVLELIAQGLSNQEISERLFISLHTVKSHARHINDKLGVERRTQAVARAKHMGLLR | failed |
| MTDGTTDGLNKAAVFICHCSGNISEHVDINTVKKTLKAEGFSVYDYEYLCSSQGQALIKKKISEGHVDRVVIGSCTPSKHGTLFKKCIQETGLNRAGLEIANLREQCAWVHPDREGATEKALSLLKAKLKRLENIEPLEDIKVDIAQQVLVIGGGIAGITAALNLADNGVPTFLVEKDSSIGGQMAKIGKIFSPDKLAEECAMCSLSPLMNEVAAHPRITLLTWTEVEKLSGSAGNFTVRLKKKPRYVKDNCIACGKCSRVCPVSVEDEFNCGYMDKKAISLRFSQSVPKVYFIDPDSCLRLKGENCGKCAEACKTGAIDFSQKEEIIELNVGAVVVATGFEEYDVSQKPQYGYGIFENVLTQMELARVLGINGPTKGELLRISDFSKASSDPAPSTCDSRCESSSDHPFEVETPERIVMIQCVGSRDEKEGGNRYCSRYCCMAALKHASLIKKRYPKTEITICYIDMRAFGFYENYYRAVQETGVNFVRGRPAEVIEKPDKSLVVRVEDTLSQKIKEIPADMVVLSAAMVPSPGTKKIASVLNLSQDESGFIKERHSKLKPVDCSLDGIFVCGTAQSPKDVTDTIAQAGLAAVRARAFITDSPKVLDNEIAAINQLLCTRCGECLKCPFDALSINENGRVVLDPLICTGCGYCTELCREGAVQIAGFTKSQLKAELEGVLEEGDVLGFVNSGISSLTCDNIGNSVLTYPSSVKLIKVPTCLIVDRDLVLHAFRHGASSVLFVEDPPDSPRAEVIYPLTVSHFEKLKEELGDSGKRIHFKKAYVPNIKGLAGTFTSLAREGEMIK | failed |
| MTDKKSENKTIQGASSLSLENRKILSITGVNEVINFDEEKISLKTDLGPLLIKGSELKMNKLDVQNGEVIIGGFISNIDYLNKKNKRKRNINLLSKIFKLEHHHHHH | not failed |
| MTDKTSLSYKDAGVDIDAGNALVGRIKGVVKKTRRPEVMGGLGGFGALCALPQKYREPVLVSGTDGVGTKLRLAMDLKRHDTIGIDLVAMCVNDLVVQGAEPLFFLDYYATGKLDVDTASAVISGIAEGCLQSGCSLVGGETAEMPGMYHGEDYDVAGFCVGVVEKSEIIDGSKVSDGDVLIALGSSGPHSNGYSLVRKILEVSGCDPQTTELDGKPLADHLLAPTRIYVKSVLELIEKVDVHAIAHLTGGGFWENIPRVLPDNTQAVIDESSWQWPEVFNWLQTAGNVEHHEMYRTFNCGVGMIIALPAPEVDKALALLNANGENAWKIGIIKASDSEQRVVIE | not failed |
| MTDMNPDIEKDQTSDEVTVETTSVFRADFLSELDAPAQAGTESAVSGVEGLPPGSALLVVKRGPNAGSRFLLDQAITSAGRHPDSDIFLDDVTVSRRHAEFRLENNEFNVVDVGSLNGTYVNREPVDSAVLANGDEVQIGKFRLVFLTGPKQGEDDGSTGGP | failed |
| MTDPLQRPRRKDPLRRTTLGHVPPRLRSRAAMEMATHAAQGRFVLQTCESCDRATYPPRDRCPNCWGELVWREQDAGGQVAAETTIRHSTDTYFRNHMPWRIGTVRLDAGPTAIVHLHGEAGVGDRVNMVLKLDRGGNPALFAMPRGDVPNMQDDPQFRSFTADPKHRRVLVTDGRTDTGQAIARALLDAGAAKVFVGDCAPLMRFAGKQQLAALDGAELVPLDVTDTHSVGNLAAQLGGRIDIVINTAGQVREGGVAFGAKLSDLQAGLDTGVVGLMRLAQAFGPALGARSDDGVNSAAAFLDVVPVSGLSGQSGYSGTAASAAARLSLLSGFRGEMQKAGIRVMSVLTGPVDDAWHQRLPQPKTAPSHLARTVVAALRDGQEISCAGDVAKDLFARWRADPLLTMREENR | failed |
| MTDPSQMQAEELLSFLEEGGTLKMLHDVSADTIEHIYAVGYNFFQSGKIEQAAKVFQLLSMLDHYQARFFIGLGAARQELGEYLQAIDAYSYAALVDINDPRPPFHSAECHLKLEQLTEAESGFYSAKEMSAGKSQYADLHQRAGIMLEAVRNKRSNLEHHHHHH | not failed |
| MTDQIREHLVSMLVHNKPGVMRKVANLFARRGFNISSITVGESETPGLSRLVIMVKGDDKTIEQIEKQAYKLVEVVKVTPIDPLPENRVEREMALIKVRFDEDKQEIFQLVEIFRGKIIDVSREGAIIEITGARSKVEAFINLLPQKQVEEIARTGIVAMNRWNVKEGEGF | not failed |
| MTDQSVRIIEAALRLYMKKPPHEVSIEEIAREAKVSKSLIFYHFESKQKLLEEAVMHAFRKMMEEFNPRSVEEVVDYGIGFIAERREFIEFMMYALSQVRIEELERMFGEALEKVASLFEGCRHPRETAIALMAMLDGLSIYSLYFDLGKLEKYREIAMEFVESRRVRA | not failed |
| MTDTLLVTSTNAGTGKTAVSLALARLAGDRDRTVGYMKPKGTRLQSNVGKTLDADPLLARDLLDLDAEIHDLEPVVYSPTFIQGAVRGREDSANLADRVRDAYDELATDRDVMLVEGAGTPTTGGIVDLTDGDIAALLDARAIVVADYTGPSDVDDVLAAADALGDRCAGVVFNAVADAVYDDVESEVTPFLESQGIPVLGVLPVERDLAGVTVDDLASELGATVLTEDTATTDAIVERFLVGAMSSESALSHFRRTKDAAVITGGDRADIQTAALDAPGVQCLVLTGGHRPSGAVLGKATDAGVPVLSVDADTLTTLERAEELVRDGRVRDEHTVDVMQRLLHDHADTDRLLD | failed |
| MTDTPVPSEATASGWRRALPVIISLAILAMALHALSSQFTDHGYRQIRQAFRALGAGQIALTLLLGLSSYACLVGFDWVGLKRTGKRLHPARVGITAFMAHAVGQTLGFAALTGGAVRLRGYGSVGLTLAEIGQVVLMSTLGFIFGAWVLLGIALMLEPEAAARALPIAAEGIRIAGIALLAGYLAMLVLVGRHGREFGIRSHRFWLPDRTTVLGVTALSVVELGLAAAAFYVLLPPDPGTGYFGFIGIWLVAVVAGLISTVPAGLGVFEWSLLKLLPHVTPAAVLAAALAYRVTYYIVPLLISVAMAAATGLRAPVRASASTARTVWKTLRPWLPQILALAVFAVGAALVIDGTLPTPRARQEVAPLPLIETSHLLVSLGGMLLLLIGQGLQRRSHSAWVLALGVCVLLPPLSLLRGSHISVSLSAALAAVALWAARREFYRQGALLDEAWSWRWLSNLGLVLVATFWLLFFVYSHVEYSNDLWWQFATSANAPRALRALLILCVGVILFGTARLLRGGRRPMPPADAQALQALAPVLASSADTQACLALTGDKAFLRDEKGLGFVMMQRYGGSLISMGDPVGPPEVARALIWRFREEADHMGLRPVFYQVGEKYWQTYLDMGLTLVKLGEEAIVPLEGFTLEGRDRADLRQAWNRGKRGGLSFRMLQPEQVDAVMAELGEVSEQWLDEKAGEEKGFSLGSFDPDYLRRFPMAVAEAEGKIVAFANVWCAPAGGELSVDLMRHSAQAPKGTMDFLFIELFLWGHANGYTRFSLGMAPLSGLAEHRLAGRWNRFASLVARHGERFYGFSGLRRFKSKFAPTWRPRYLVAPGGMHLPAALLDVTRLISVDPGRQD | failed |
| MTDTRPAQSLGPGLQPETRSLGDEPVRLVDTTMLYAPRSGGVRRYLSSKRAWLASHRPDVRHTLVVPGARDFHDGRGQVSIYAAPLPFGAGYRWPVVKQTWMERLIRQQPDLIEAGDPYTPGLAALRAGDALGVPVVGFCHTDLGKLAALHIGDWAEKPVQKRWAAIYRQFDQAVAPSRFIAGRLIEAGVRDAIGLPLGVDTAIFHPERGDRDGLRRRLGLSPKDRLLVFAGRPAREKKLDVLVAAVERLGDPYKLLFVGAGGGAPVSDRTLCIDYVRDPVELASILASCDAFVHANDNEPFGLIVLEAMACGLPVVGVSAGGVAESVDAAVGQLAVASEATAFADAIEALFERDVTVVGEAARRRAVERHGWDAVFTELCLIYDRLTGRRAFSSASAHAGH | failed |
| MTDTSTADVDLVGEEMALNVARTALFAALMGAFAYVSFPYPLSPAPVTLQVLGVFLAGLLLGPLWGGAAMVVYLLAGVLGAPVFSAGEAGIGVILGPQGGYLLSYPFAAAIVGGIVHRGTDIKPLETVSAALMIAAMILSTVVIYAFGIPFMWWNLEMTLLNAVIAGGVVFIPAEAAKMAAAIGIVRSDAIRAE | failed |
| MTDVRHCPAVLIAAPASGQGKTTVTAALARLHRNRGRKVRVFKCGPDFLDPMILERASGAAVYQLDMWMVGEQESRRLLWEAAGEADLILIEGVMGLFDGTPSSADLARHFGVPVLGVIDGTAMAQTFGALALGLARYQPDLPFAGVLANRVGTLRHAQLLEGSLTEGLRWYGALSRETDIELPSRHLGLVQASELNDLDLRLDAAAEALASSCQVELPPAVSFAAPTPVACAPLLKGVRIAVARDEAFAFTYGASLDLLRAMGAQLSFFSPIHDTQLPDADSLYLPGGYPELHHQALARNSSMLQAIRAHHAAGKPLLAECGGMLYLLDSLTDVEGQRAELLGLLPGDAVMQKRLAALALQAVDLPEGSLRGHTYHHSLTSTELLPIARGLSPNGGRGAEAVYRQGRMTASYVHFYFPSNPAAVAALFAPGAPVEPVLAEGVAGELEHHHHHH | failed |
| MTDYASLLMSLTSGSALDSGCMEQLIQEGLYVTPALFSVDRAALWVLDKDEQAYLCEADFFDGMIDHRSSQRLTKKEDAELFSFLESTSEIIINNYFTYESFGLNTSRILSRFQLCSLLLIPLQIKGENRGFIFLGDSQKNIEWSPDVLFASRILVQLFERALLALDNSVAETKLQHQYQLMSEIEKLAK | failed |
| MTDYGEEQRNELEALESIYPDSFTVLSENPPSFTITVTSEAGENDETVQTTLKFTYSEKYPDEAPLYEIFSQENLEDNDVSDILKLLALQAEENLGMVMIFTLVTAVQEKLNEIVDQIKTR | not failed |
| MTEDERFAWLQLAFTPYIGAESFLLLMRSFGSAQNALSAPAEQVAPAVRHKHALEAWRNAEKRALARQAAEAALEWEMRDGCRLMLLQDEDFPEMLTQGLTAPPVLFLRGNVRLLHKPSAAIVGSRHATPQAMRIAKDFGRALGGKGIPTVSGMASGIDTAAHQGALEAEGGTVAVWGTGIDRIYPPANKNLAYEIAEKGLIVSEFPIGTRPYAGNFPRRNRLIAALSQVTLVVEAALESGSLITAGLAAEMGREVMAVPGSIDNPHSKGCHKLIKDGAKLTECLDDILNECPGLLQNTGASSYSINKDTPDTGRRAVQTAYAPPPAAKMPSEGAAGGTAVGGILDKMGFDPVHPDVLAGQLAMPAADLYAALLELELDGSVAAMPGGRYQRIRT | failed |
| MTEEFNESMINDIKEGDKVTGEVQQVEDKQVVVHINGGKFNGIIPISQLSTHHIENPSEVVKVGDEVEAYVTKIEFDEENDTGAYILSKRQLETEKSYEYLQEKLDNDEVIEAEVTEVVKGGLVVDVGQRGFVPASLISTDFIEDFSVFDGQTIRIKVEELDPENNRVILSRKAVEQLENDAKKASILDSLNEGDVIDGKVARLTNFGAFINIGGVDGLVHVSELSHGTCSNTRRSCVSRLEHHHHHH | not failed |
